# From article PMC9939296 (Acta Pharmaceutica Sinica. B, 2022)
# Columns and labels:
# [1] = biological target: T1, DgpA/B/C (human intestinal bacterium PUE, UniProt A0A3Q9WUX0+A0A3Q9WWX8+A0A3Q9WXL1); test: inhibition of puerarin cleavage, HPLC; assay type: biochemical; conditions: proposed competitive with puerarin at DgpA pocket; substrate puerarin
# T1 sequence (A0A3Q9WWX8 1-367): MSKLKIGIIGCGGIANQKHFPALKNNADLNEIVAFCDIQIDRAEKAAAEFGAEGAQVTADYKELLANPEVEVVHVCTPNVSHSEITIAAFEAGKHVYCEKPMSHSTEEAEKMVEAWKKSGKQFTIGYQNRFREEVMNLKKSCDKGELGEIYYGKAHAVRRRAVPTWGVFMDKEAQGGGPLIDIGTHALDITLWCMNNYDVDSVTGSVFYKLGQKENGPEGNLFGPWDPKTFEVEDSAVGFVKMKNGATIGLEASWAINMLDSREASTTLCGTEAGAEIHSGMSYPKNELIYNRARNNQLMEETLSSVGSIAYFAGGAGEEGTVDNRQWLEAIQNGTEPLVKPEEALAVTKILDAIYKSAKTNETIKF
# T1 sequence (A0A3Q9WXL1 1-324): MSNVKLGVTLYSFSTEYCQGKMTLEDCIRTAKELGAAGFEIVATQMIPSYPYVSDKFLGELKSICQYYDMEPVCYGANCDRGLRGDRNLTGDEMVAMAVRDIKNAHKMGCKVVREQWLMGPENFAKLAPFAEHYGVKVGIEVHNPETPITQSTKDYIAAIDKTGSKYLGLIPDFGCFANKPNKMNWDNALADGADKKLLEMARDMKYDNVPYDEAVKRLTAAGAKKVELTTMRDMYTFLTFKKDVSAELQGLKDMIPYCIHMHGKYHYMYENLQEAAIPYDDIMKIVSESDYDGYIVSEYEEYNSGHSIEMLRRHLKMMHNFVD
# T1 sequence (A0A3Q9WUX0 1-142): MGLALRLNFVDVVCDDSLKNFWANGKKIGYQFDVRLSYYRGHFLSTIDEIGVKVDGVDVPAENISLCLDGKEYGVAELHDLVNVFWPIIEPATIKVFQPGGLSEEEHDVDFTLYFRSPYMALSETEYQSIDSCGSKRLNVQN
# [2] = biological target: DgpA (human intestinal bacterium PUE); test: SEC
# [3] = biological target: DgpA (human intestinal bacterium PUE); test: native gel or EMSA
Molecule,inhibition ratio [1],stoichiometry N [2],stoichiometry N [3]
OC[C@H]1OC(O)[C@H](O)[C@@H](O)[C@@H]1O (stereo partly drawn) [glucose],cleaving activity of DgpA/B/C was significantly attenuated proportional to glucose concentration,–,–
DgpA (enzyme),–,6,6
